Experimental data: patent US20240209070A1 (LUNDQUIST INSTITUTE FOR BIOMEDICAL INNOVATION AT HARBOR …, published 2024)
Where a chain is given by its changes, count along the chain named. Read-outs that look alike come from different tables or passages of the source.

Tests used:
[1] = molecular target: T1, recombinant CotH3 protein of Rhizopus delemar 99-880 (Flag-TEV-CotH3 made in S. cerevisiae) (Rhizopus delemar 99-880 (Rhizopus …, UniProt I1CFE1 18-579)); assay: method and antigen form not stated
T1 construct: also called CotH3 antigen; rCotH3p
T1 sequence: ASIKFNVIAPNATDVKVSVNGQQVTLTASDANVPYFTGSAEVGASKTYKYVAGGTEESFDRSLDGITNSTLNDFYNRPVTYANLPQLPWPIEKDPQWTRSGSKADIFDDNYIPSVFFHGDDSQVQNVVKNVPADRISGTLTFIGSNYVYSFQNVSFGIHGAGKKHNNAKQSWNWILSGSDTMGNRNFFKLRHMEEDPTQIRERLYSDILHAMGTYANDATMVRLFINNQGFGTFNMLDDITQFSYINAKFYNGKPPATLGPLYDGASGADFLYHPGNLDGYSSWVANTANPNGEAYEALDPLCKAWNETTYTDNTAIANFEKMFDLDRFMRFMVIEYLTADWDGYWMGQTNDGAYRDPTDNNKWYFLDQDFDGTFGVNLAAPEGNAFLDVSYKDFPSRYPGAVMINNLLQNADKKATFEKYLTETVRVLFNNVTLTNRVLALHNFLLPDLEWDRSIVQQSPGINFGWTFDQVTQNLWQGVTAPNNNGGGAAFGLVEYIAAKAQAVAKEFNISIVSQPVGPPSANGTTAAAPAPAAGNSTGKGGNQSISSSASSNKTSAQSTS

[2] = molecular target: T1, recombinant CotH3 protein of Rhizopus …; assay: dose response of Fnorm [per mille] against ligand concentration [M], Kd model, On Time 20s, TargetConc 5nM, Unbound 829.3, Bound 803.3, amplitude 26.0, signal to noise 20.5; method and antigen not named in the filing's text
[3] = molecular target: T1, recombinant CotH3 protein of Rhizopus …
[4] = molecular target: T1, recombinant CotH3 protein of Rhizopus …; assay: not stated (conclusions; reported affinity)
[5] = molecular target: T1, recombinant CotH3 protein of Rhizopus …; assay: BLI (Gator), from the KD values of Table 5
Experimental: (§1) The purified preparations were then used to assess the affinity of each clone for the CotH3 antigen by biolayer interferometry using Gator system (ProbeLife). Under the assumption that the CotH3 antigen provided by Vitalex behaves as a normal soluble monomeric protein, a Protein G coated sensor probe (ProbeLife, catalog #160006) was loaded with the bivalent antibody test clone at a concentration of 5 μg/ml in ProbeLife's kinetic buffer (PBS pH 7.4, 0.02% BSA, 0.002% Tween-20, 0.005% NaN₃). […] All reactions were performed at 25° C. The values are chosen when three or more concentrations yield the same kinetic values.

[6] = molecular target: T1, recombinant CotH3 protein of Rhizopus …; assay: BLI (Gator), antibody on Protein G sensor, CotH3 6.25-400 nM, 25 C
Experimental: as §1

[7] = molecular target: T1, recombinant CotH3 protein of Rhizopus …; assay: BLI (Gator), antibody from culture medium on Protein G sensor
Rhizopus delemar = molecular target: T2, Rhizopus delemar (Rhizopus delemar); assay: flow cytometry on fixed Rhizopus delemar spores, 20 ug/ml antibody; blank 'Hu 2nd Only' median 565.83, mean 592.76
T2 construct: native, on paraformaldehyde-fixed spores; also called cell-surface CotH antigen on Rhizopus delemar spores

[8] = molecular target: T3, Cunninghamella bertholletiae (Cunninghamella bertholletiae); assay: flow cytometry on fixed Cunninghamella bertholletiae spores, 20 ug/ml antibody; blank 'Hu 2nd Only' median 241.78, mean 250.81
T3 construct: native, on paraformaldehyde-fixed spores; also called cell-surface CotH antigen on Cunninghamella bertholletiae spores

Mucor circinelloides = molecular target: T4, Mucor circinelloides (Mucor circinelloides); assay: flow cytometry on fixed Mucor circinelloides spores, 20 ug/ml antibody; blank 'Hu 2nd Only' median 990.21, mean 1062.19
T4 construct: native, on paraformaldehyde-fixed spores; also called cell-surface CotH antigen on Mucor circinelloides spores

Rhizomucor = molecular target: T5, Rhizomucor (Rhizomucor (species not given)); assay: flow cytometry on fixed Rhizomucor spores, 20 ug/ml antibody; blank 'Hu 2nd Only' median 257.20, mean 272.52
T5 construct: native, on paraformaldehyde-fixed spores; also called cell-surface CotH antigen on Rhizomucor spores

B1: mouse anti-CotH3 monoclonal antibody clone C2 (antibody, V domains shown)
VH: DLQLQESGPSLVKPSQTLSLTCSVTGDSITSGYWNWIRKFPGNKLEHMGYIKYSGRTFYNPSLKSRVSITRDTSKNQYYLQLNSVTSEDTATYYCASRGYWGQGTTLTVSS
VL: DVVMTQTPLSLSVTIGQPASISCKSSQSLLYSNGKTYLNWLQQRPGQAPKLLMFQVSKPGIPDRFSGSGSETDFTLKISRVEAEDLGVYYCLQGTYFPHTFGAGTKVEIK
notes: also called 6E11A8 mAb; mAb
Kd [1]: ~40 nM
Kd [2]: 40.4 nM
Kd [3]: 58.9 nM
koff [3]: 0.00141 s⁻¹
kon [3]: 23900 M⁻¹ s⁻¹
Kd [4]: ~50 nM

B2: C2 Chimera 2 (C2 VH on human IgG1 constant region with AvantGen cloned variable kappa on human kappa constant region) (antibody, V domains shown)
VH: B1 VH
VL: DVVMTQTPLSLSVTIGQPASISCKSSQSLLYSNGKTYLNWLQQRPGQAPKLLMFQVSKPGIPDRFSGSGSETDFTLKISRVEAEDLGVYYCLQGTYFPHTFGAGTKVEIKR
notes: also called AvantGen LC-chimera
fold improvement in affinity over the parental mouse mAb [5]: 33 fold
Kd [6]: 1.8 nM
koff [6]: 0.00111 s⁻¹
kon [6]: 627000 M⁻¹ s⁻¹

B3: humanized variant LC2:HC1 (antibody, V domains shown)
VH: QVQLQESGPGLVKPSETLSLTCTVSGDSITSGYWSWIRQPPGKGLEWIGYIKYSGRTNYNPSLKSRVTISRDTSKNQFSLKLSSVTAADTAVYYCASRGYWGQGTLVTVSS
VL: DIVMTQTPLSLSVTPGQPASISCKSSQSLLDSDGKTFLNWLLQKPGQSPQLLIYLVSKLDSGVPDRFSGSGSGTDFTLKISRVEAEDVGVYYCWQGTHFPHTFGQGTKVEIKR
binding result [7]: no binding (tested: 30 nM CotH3)

B4: humanized variant Grafted LC:HC1 (antibody, V domains shown)
VH: B3 VH
VL: DIVMTQTPLSLSVTPGQPASISCKSSQSLLDSDGKTFLYWYLQKPGQSPQLLIYLVSSRFSPDRFSGSGSGTDFTLKISRVEAEDVGVYYCWQGTHFPHTFGQGTKVEIKR
binding result [7]: no binding (tested: 30 nM CotH3)

B5: humanized variant LC1:HC1 (antibody, V domains shown)
VH: B3 VH
VL: B3 VL with N39Y, L41Y
binding result [7]: no binding (tested: 30 nM CotH3)

B6: humanized variant LC1:HC3 (antibody, V domains shown)
VH: B3 VH with S35N, W47H, N58F
VL: B3 VL with N39Y, L41Y
binding result [7]: no binding (tested: 30 nM CotH3)

B7: humanized variant LC3:Grafted HC (antibody, V domains shown)
VH: B3 VH with R71V
VL: B3 VL with L51R
binding result [7]: no binding (tested: 30 nM CotH3)

B8: humanized variant LC3:HC1 (antibody, V domains shown)
VH: B3 VH
VL: B3 VL with L51R
binding result [7]: no binding (tested: 30 nM CotH3)

B9: humanized anti-CotH3 antibody LC3:HC2 (antibody, human IgG1, kappa, V domains shown)
VH: B3 VH with W47H, N58F
VL: B3 VL with L51R
notes: also called L3:H2; IgG anti-CotH3-LC3HC2
Mean: FITC-A (Rhizopus delemar): 21800
Median: FITC-A (Rhizopus delemar): 20600
Mean: FITC-A [8]: 35600
Median: FITC-A [8]: 34900
Mean: FITC-A (Mucor circinelloides): 43200
Median: FITC-A (Mucor circinelloides): 37100
Mean: FITC-A (Rhizomucor): 35900
Median: FITC-A (Rhizomucor): 35900

B10: humanized anti-CotH3 antibody LC2:HC3 (antibody, human IgG1, kappa, V domains shown)
VH: B3 VH with S35N, W47H, N58F
VL: B3 VL
notes: also called L2:H3; IgG anti-CotH3-LC2HC3
Mean: FITC-A (Rhizopus delemar): 28900
Median: FITC-A (Rhizopus delemar): 27700
Mean: FITC-A [8]: 29800
Median: FITC-A [8]: 29200
Mean: FITC-A (Mucor circinelloides): 40600
Median: FITC-A (Mucor circinelloides): 36500
Mean: FITC-A (Rhizomucor): 29000
Median: FITC-A (Rhizomucor): 29000

B11: humanized variant LC1:HC2 (antibody, V domains shown)
VH: B3 VH with W47H, N58F
VL: B3 VL with N39Y, L41Y
binding result [7]: no binding (tested: 30 nM CotH3)

B12: humanized variant LC2:Grafted HC (antibody, V domains shown)
VH: B3 VH with R71V
VL: B3 VL
binding result [7]: no binding (tested: 30 nM CotH3)

B13: humanized anti-CotH3 antibody LC3:HC3 (antibody, human IgG1, kappa)
heavy: not shown
light: DIVMTQTPLSLSVTPGQPASISCKSSQSLLDSDGKTFLNWLLQKPGQSPQRLIYLVSKLDSGVPDRFSGSGSGTDFTLKISRVEAEDVGVYYCWQGTHFPHTFGQGTKVEIKRTVAAPSVFIFPPSDEQLKSGTASVVCLLNNFYPREAKVQWKVDNALQSGNSQESVTEQDSKDSTYSLSSTLTLSKADYEKHKVYACEVTHQGLSSPVTKSFNRGEC
notes: also called VX01; L3:H3
Mean: FITC-A (Rhizopus delemar): 18200
Median: FITC-A (Rhizopus delemar): 17000
Mean: FITC-A [8]: 19300
Median: FITC-A [8]: 18900
Mean: FITC-A (Mucor circinelloides): 22500
Median: FITC-A (Mucor circinelloides): 18800
Mean: FITC-A (Rhizomucor): 19800
Median: FITC-A (Rhizomucor): 19900
